Measured values as given in patent US20060040319A1, “Multiple sensor-containing active modified polypeptides, preparation and uses thereof” (priority 2000, published 2006).
Entries after “also recorded” stand apart in the source; their conditions may differ.

Experiments:
[1] = target: T1, full length recombinant c-Abl (Mus musculus, UniProt P00520); assay: Kinase assay: phosphorylation of Rh-(Crk-II)-Fl by full length c-Abl (FRET, western blot, native PAGE); type: biochemical
T1 construct: full length recombinant (Baculovirus/SF9) mouse c-Abl; made in house; host or cells: Baculovirus/SF9
T1 sequence (P00520 whole entry): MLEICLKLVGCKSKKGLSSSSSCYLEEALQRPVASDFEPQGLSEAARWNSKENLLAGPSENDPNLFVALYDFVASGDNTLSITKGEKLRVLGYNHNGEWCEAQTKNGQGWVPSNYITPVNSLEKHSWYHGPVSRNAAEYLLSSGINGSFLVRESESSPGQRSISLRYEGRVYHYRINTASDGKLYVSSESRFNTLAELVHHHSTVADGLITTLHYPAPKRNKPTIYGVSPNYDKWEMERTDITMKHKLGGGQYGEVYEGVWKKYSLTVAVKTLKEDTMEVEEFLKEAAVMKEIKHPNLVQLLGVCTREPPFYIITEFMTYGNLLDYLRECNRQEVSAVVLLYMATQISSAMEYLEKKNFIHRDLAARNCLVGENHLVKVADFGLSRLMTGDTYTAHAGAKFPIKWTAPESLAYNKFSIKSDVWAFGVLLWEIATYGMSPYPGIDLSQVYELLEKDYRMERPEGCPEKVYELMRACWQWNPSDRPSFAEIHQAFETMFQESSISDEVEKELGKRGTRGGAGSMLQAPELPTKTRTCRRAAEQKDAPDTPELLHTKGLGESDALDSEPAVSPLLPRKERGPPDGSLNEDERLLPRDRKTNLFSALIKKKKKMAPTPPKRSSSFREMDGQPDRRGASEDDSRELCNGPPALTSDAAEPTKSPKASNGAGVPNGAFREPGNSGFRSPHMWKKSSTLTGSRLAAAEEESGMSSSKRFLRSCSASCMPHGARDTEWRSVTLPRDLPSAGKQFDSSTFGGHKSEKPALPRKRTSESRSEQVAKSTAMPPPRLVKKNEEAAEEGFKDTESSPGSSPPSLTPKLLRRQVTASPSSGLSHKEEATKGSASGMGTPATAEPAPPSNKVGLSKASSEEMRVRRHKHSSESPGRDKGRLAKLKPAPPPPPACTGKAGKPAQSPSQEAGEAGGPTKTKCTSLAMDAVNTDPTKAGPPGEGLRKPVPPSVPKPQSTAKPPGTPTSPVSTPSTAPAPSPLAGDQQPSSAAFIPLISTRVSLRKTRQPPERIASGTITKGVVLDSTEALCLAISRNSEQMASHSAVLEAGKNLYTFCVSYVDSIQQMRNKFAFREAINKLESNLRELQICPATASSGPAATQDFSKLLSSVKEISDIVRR
Method: (§1) Purified Rh-(Crk-II)-Fl prepared as described in Example I was treated with either full length recombinant (Baculovirus/SF9) mouse c-Abl or a GST fusion of mouse c-Abl containing only the SH2 and kinase domains (expressed in E. coli BL21 essentially as described (19)). In a typical experiment, the appropriate c-Abl construct was incubated in reaction buffer (2 mM DTT, 0.2 mg/ml BSA, 10 mM Mg^2+, 50 mM Tris, pH 7.4, either with or without ATP (500 μM)) for 5 min at 30° C. before addition of Rh-(Crk-II)-Fl (final concentration=0.25 μM). In order to ensure that equal amounts of active c-Abl enzyme were added to each reaction, preliminary titration experiments were carried out using an optimized peptide substrate for c-Abl (EAIYAAPFAKKK (SEQ ID No:2) (20)). For peptide inhibition studies, Rh-(Crk-II)-Fl was pre-incubated for 30 min with a high affinity ligand for the N-SH3 domain of Crk, PPPALPPKRRR-NH2 (SEQ ID No:7) (21), such that the final concentration of ligand in the kinase assay was 12 μM. In all cases, aliquots of the reaction mixtures were removed at ˜1 min and 60 min, quenched with EDTA (final conc.=40 mM), and then analyzed by native-PAGE and/or Western blotting and fluorescence spectroscopy.
Western Blotting. Standard procedures were used to probe for tyrosine phosphorylation using a mouse monoclonal anti-phosphotyrosine primary antibody (PY20, Santa Cruz Biotechnology) and a HPO-conjugated goat anti-mouse polyclonal secondary antibody (Amersham Pharmacia).
Fluorescence Spectroscopy. Experiments were conducted at 18° C. in a stirred 0.5 cm-pathlength cell using a SPEX FL3-11C fluorimeter. Samples from the reactions (50 μl) were diluted into 2 mM DTT, 0.4 mg/mL BSA, 140 mM NaCl, 50 mM Tris, pH 7.4 buffer (450 μl) for analysis. Excitation was at 490 nm with a 2.5 nm slit and the fluorescence emission was monitored at 520 nm and 580 nm through a 4 nm slit. Purified Rh-(Crk-II)-Fl was assayed for its ability to biosense Crk-II phosphorylation by the c-Abl protein tyrosine kinase. As indicated previously, phosphorylation by c-Abl leads to an intramolecular association between a phosphotyrosine motif and the Crk-II SH2 domain, which could potentially be reported by the dual-labeled Crk-II derivative (FIG. 1). Rh-(Crk-II)-Fl was treated with full length recombinant c-Abl and aliquots of the reaction mixture were analyzed by fluorescence spectroscopy and western blotting at ˜1 min and 60 min time-points. […] In contrast, when ATP was included in the reaction mixture, a phosphorylation-dependent increase in the emission intensity ratio (a decrease in FRET) was consistently observed.

[2] = target: T2, GST fusion of mouse c-Abl containing only the SH2 and kinase domains (Mus musculus, UniProt P00520); assay: Kinase assay with truncated c-Abl containing only the SH2 and kinase domains; type: biochemical; conditions: truncated c-Abl (SH2 and kinase domains only), over 60 min
T2 construct: a GST fusion of mouse c-Abl containing only the SH2 and kinase domains; made in house; host or cells: E. coli BL21
T2 sequence (P00520 127-493): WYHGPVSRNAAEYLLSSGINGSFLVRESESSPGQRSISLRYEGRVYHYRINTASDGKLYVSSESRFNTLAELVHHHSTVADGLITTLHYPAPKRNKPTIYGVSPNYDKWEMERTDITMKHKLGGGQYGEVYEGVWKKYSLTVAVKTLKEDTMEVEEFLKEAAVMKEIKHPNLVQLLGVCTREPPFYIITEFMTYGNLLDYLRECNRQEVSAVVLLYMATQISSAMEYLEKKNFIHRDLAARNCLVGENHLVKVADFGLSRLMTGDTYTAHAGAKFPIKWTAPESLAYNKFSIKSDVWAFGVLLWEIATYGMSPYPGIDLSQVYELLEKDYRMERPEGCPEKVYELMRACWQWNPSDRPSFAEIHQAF
Method: as §1, with “For peptide inhibition studies, Rh-(Crk-II)-Fl was pre-incubated for 30 min with a high affinity ligand for the N-SH3 domain of Crk, PPPALPPKRRR-NH2 (SEQ ID No:7) (21), such that the final concentration of ligand in the kinase assay was 12 μM.” left out, “spectroscopy. […]” for “spectroscopy.”
Fluorescence Spectroscopy. […] Excitation was at 490 nm with a 2.5 nm slit and the fluorescence emission was monitored at 520 nm and 580 nm through a 4 nm slit. […] Rh-(Crk-II)-Fl was treated with full length recombinant c-Abl and aliquots of the reaction mixture were analyzed by fluorescence spectroscopy and western blotting at ˜1 min and 60 min time-points. […]

B1: Rh-(Crk-II)-Fl: semi-synthetic mouse Crk-II adapter protein with tetramethylrhodamine and fluorescein FRET pair at the N- and C-termini (protein)
chain: KRGCAGNFDSEERSSWYWGRLSRQEAVALLQGQRHGVFLVRDSSTSPGDYVLSVSENSRVSHYIINSSGPRPPVPPSPAQPPPGVSPSRLRIGDQEFDSLPALLEFYKIHYLDTTTLIEPVARSRQGSGVILRQEEAEYVRALFDFNGNDEEDLPFKKGDILRIRDKPEEQWWNAEDSEGKRGMIPVPYVEKYRPASASVSALIGGNQEGSHPQPLGGPEPGPYAQPSVNTPLPNLQNGPIYARVIQKRVPNAYDKTALALEVGELVKVTKINVSGQWEGECNGKRGHFPFTHVRLLDQQNPDEDFSGCGXGLEVLFQ
modifications: not fully specified; tetramethylrhodamine N-terminal, fluorescein C-terminal; Protein Kinase Target
notes: semi-synthetic mouse Crk-II adapter protein with tetramethylrhodamine and fluorescein FRET pair at the N- and C-termini
[1]; absence of ATP
  change in FRET: essentially no change in FRET
  phosphorylation detected with anti-phosphotyrosine monoclonal antibody (western): no Rh-(Crk-II)-Fl phosphorylation could be detected
[1]; with ATP, after 1 h
  extent of phosphorylation by native PAGE mobility: completely phosphorylated
[1]; with ATP, after 60 min
  decrease in FRET (increase in Fl:Rh emission intensity ratio): ~3%
[2]
  phosphorylation by fluorescence and western blotting analysis: did not lead to any detectable phosphorylation; also recorded: complete lack of phosphorylation
